US6972319B1, “Pituitary adenylate cyclase activating peptide (PACAP)receptor 3 (R3) agonists and their pharmacological methods of use” (priority 1999, dated 2005)

T1: PACAP-R3 (human, UniProt P41587 24-438)
T1 sequence (looked up): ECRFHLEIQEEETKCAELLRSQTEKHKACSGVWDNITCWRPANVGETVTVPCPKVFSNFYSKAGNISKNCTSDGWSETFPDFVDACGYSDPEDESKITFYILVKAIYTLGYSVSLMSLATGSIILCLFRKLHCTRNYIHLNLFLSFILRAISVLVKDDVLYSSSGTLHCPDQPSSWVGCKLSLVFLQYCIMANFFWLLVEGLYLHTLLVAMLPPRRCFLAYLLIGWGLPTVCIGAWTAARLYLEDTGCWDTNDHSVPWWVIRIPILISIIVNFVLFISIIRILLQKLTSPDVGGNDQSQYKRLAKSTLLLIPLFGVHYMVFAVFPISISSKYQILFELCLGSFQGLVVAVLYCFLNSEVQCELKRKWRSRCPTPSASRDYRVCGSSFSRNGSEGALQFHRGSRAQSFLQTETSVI


target: T1, PACAP-R3; experiment: cell-based or functional assay

Row | R3 EC50 | R3 Selectivity | Binder
1 | 70 pM | 90 | HSDAVFTDNYTRLRKQMAAKKYLNSIKNKG [R3P158]
2 | 500 pM | > 200 | HSDAVFTDNYTRLRKQLAAKKYLNDIKK [R3P33]
3 | 1400 pM | 30 | HSDAVFTENYTKLRKQLAAKKYLNDLKKGGTSWCEPGWCR [R3P19]
4 | 300 pM | 170 | HSDAVFTDNYTRLRKQMAAKKYLNSIKNKF [R3P157]
5 | 300 pM | > 300 | HSDAVFTDNYTRLRKQLAAKKYLNDIKKGG [R3P31]
6 | 2600 pM | > 40 | HSDAVFTDNYTRLRKQLAAKKYLNDIKKNQ [R3P35]
7 | 400 pM | > 200 | HSDAVFTDNYTRLRKQLAAKKYLNDIKKKRY [R3P36]
8 | 200 pM | 500 | HSDAVFTDNYTRLRKQMAAKKYLNSIKNKI [R3P160]
9 | 1400 pM | 230 | HSDAVFTDNYTRLRKQMAAKKYLNDIKKGGT [R3P20]
10 | 300 pM | 60 | HSDAVFTDNYTRLRKQLAVKKYLNDIKKGGT [R3P21]
11 | 550 pM | > 180 | HSDAVFTDNYTRLRKQMAAKKYLNSIKKGGT [R3P26]
12 | 400 pM | 50 | HSDAVFTDNYTRLRKQLAAKKYLNSIKNGGT [R3P30]
13 | 500 pM | > 200 | HSDAVFTDNYTRLRKQLAVKKYLNDIKNGGT [R3P29]
14 | 1600 pM | 24 | HSDAVFTDNYTRLRKQLAAKKYLNSIKKGGT [R3P22]
15 | 700 pM | 20 | HSDAVFTDNYTRLRKQLAVKKYLNSIKKGGT [R3P25]
16 | 200 pM | – | HSDAVFTDNYTRLRKQMAAKKYLNSIKNKM [R3P163]
17 | 1400 pM | > 70 | HSDAVFTDNYTRLRKQLAAKKYLNDIKKQ [R3P34]
18 | 300 pM | 300 | HSDAVFTDNYTRLRKQMAAKKYLNSIKNKN [R3P164]
19 | 500 pM | 400 | HSDAVFTDNYTRLRKQMAAKKYLNSIKNKH [R3P159]
20 | 400 pM | 200 | HSDAVFTDNYTRLRKQLAAKKYLNDIKKG [R3P32]
21 | 200 pM | 300 | HSDAVFTDNYTRLRKQMAAKKYLNSIKNKK [R3P161]
